The values that follow come from US20230364262A1, “VIA CYCLOADDITION BILATERALLY FUNCTIONALIZED ANTIBODIES” (SYNAFFIX B.V., priority 2020, published 2023).

For test [1], the target named is CD3 (UniProt P07766). In words: flow cytometry on Jurkat E6.1 cells, 10 nM, anti-HIS-PE.
Test [2] concerns the target CD3 (UniProt P07766). In words: flow cytometry on Jurkat E6.1 cells, 0.32 nM, anti-HIS-PE. For orientation: In flow cytometry, cells or beads pass a laser one at a time.
Test [3] addresses CD3 (UniProt P07766). Briefly: flow cytometry on Jurkat E6.1 cells, 3.16 nM, anti-HIS-PE.
Test [4] has as its target CD3 (UniProt P07766). In words: flow cytometry on Jurkat E6.1 cells, 31.6 nM, anti-HIS-PE.
Test [5] has as its target CD3 (UniProt P07766). In words: flow cytometry on Jurkat E6.1 cells, 1 nM, anti-HIS-PE.
For test [6], the target named is CD3 (UniProt P07766). In words: flow cytometry on Jurkat E6.1 cells, 100 nM, anti-HIS-PE.
The target in test [7] is CD3 (UniProt P07766). Briefly: flow cytometry on Jurkat E6.1 cells, 316 nM, anti-HIS-PE.
In test [8] the target is CD3 (UniProt P07766). In words: flow cytometry on Jurkat E6.1 cells, 1000 nM, anti-HIS-PE.
The target in test [9] is T1, CD3 (CD3-positive Jurkat E6.1 cells) (Homo sapiens, UniProt P07766).
T1 construct: Jurkat E6.1 cells, which express CD3 on the cell surface; endogenous in cells; host or cells: Jurkat E6.1
T1 sequence (P07766 23-207): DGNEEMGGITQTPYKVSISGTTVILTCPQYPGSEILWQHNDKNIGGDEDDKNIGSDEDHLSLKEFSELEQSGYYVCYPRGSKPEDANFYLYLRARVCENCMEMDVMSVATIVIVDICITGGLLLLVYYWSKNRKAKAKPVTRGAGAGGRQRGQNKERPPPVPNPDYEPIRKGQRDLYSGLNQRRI
T1 sequence (P09693 23-182 partner): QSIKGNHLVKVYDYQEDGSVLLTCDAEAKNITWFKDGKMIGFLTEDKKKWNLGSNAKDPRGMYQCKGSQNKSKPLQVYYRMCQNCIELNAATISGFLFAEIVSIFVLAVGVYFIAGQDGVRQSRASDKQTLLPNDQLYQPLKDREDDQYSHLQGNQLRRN
T1 sequence (P04234 22-171 partner): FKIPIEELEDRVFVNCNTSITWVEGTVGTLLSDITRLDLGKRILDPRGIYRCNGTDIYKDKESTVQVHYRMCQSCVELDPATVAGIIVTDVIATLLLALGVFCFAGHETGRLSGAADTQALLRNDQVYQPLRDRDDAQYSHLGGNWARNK
T1 sequence (P20963 22-164 partner): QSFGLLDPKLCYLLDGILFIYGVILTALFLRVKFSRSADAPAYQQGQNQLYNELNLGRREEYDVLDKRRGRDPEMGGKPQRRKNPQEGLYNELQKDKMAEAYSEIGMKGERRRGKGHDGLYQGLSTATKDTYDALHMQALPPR
Briefly: CD3 binding analysis by FACS on CD3-positive cells. Particulars: Table 1. The protocol: Both cell lines were cultured in RPMI 1640 supplemented with 1% pen/strep and 10% fetal bovine serum at a concentration of 2 × 10^5 to 1 × 10^6 cells/ml. Cells were washed in fresh medium before the experiment and 100,000 cells per well were seeded in a 96-wells plate (duplicate wells). The dilution series of 6 antibodies were made in phosphate-buffered saline (PBS). The antibodies were diluted 10 times in the cell suspension and incubated at 4° C. in the dark for 30 minutes. After incubation, the cells were washed twice in cold PBS / 0.5% BSA, and incubated with anti-HIS-PE (only for 200) or anti-lgG1-PE (for all other compounds) at 4° C., in the dark for 30 minutes. After the second incubation step, the cells were washed twice. 7AAD was added as a live-dead staining. Detection of the fluorescence in the Yellow-B channel (anti-IgG1-PE and anti-HIS-PE) and the Red-B channel (7AAD) was done with the Guava 5HT flow cytometer. Median fluorescence intensity in the Yellow-B channel (anti-IgG1-PE and anti-HIS-PE) in life cells was determined with Kaluza software.

Chain of CD3 (P07766 23-207): as the sequence (P07766 23-207) above

Turning to “Humanized OKT3 (hOKT3) with C-terminal sortase A recognition sequence (scFv)”, the median fluorescence intensity worked out at 110 in test [1]; 63.6 in [2]; 83.7 in [3]; 154 in [4]; 66.2 in test [5]; 177 in test [6]. Moreover, the figures for the median fluorescence intensity in test [7] and in test [8] were 224 and 417, respectively.

In the case of Rituximab, the “concentration-dependent binding to the CD3 positive Jurkat E6.1 cell line” value in test [9] is “not”.
